In the RNAGym collection of RNA variant scans (doi:10.1073/pnas.2313332121):
Variants at the floor of the assay were thinned out.

B1: TPR 5TU (parent)
chain: GGAUCUUCUCGAUCUAACAAAAAAGACAAAUCUGCCACAAAGCUUGAGAGCAUCUUCGGAUGCAGAGGCGGCAGCCUUCGGUGGCGCGAUAGCGCCAACGUUCUCAACUAUGACACGCAAAACGCGUGCUCCGUUGAAUGGAGUUUAUCAUG

Variants of: B1
Test: polymerase ribozyme fitness, log enrichment relative to wild type (log ratio); higher = more active; in vitro selection for triplet polymerase activity
Outline: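 Fitness is a logarithmic measure of how a genotype enriched relative to the wild type, with replicate averages weighted by inverse variance. The logarithm uses base 2, and enrichment came from Illumina sequencing of input and output libraries. Those libraries were PCR-built, transcribed mutants of each subunit of a heterodimeric triplet polymerase ribozyme, passed through one triplicate in vitro selection round that included frozen incubation at −7 °C, gel excision of extended constructs and streptavidin-bead capture. Genotypes were kept only if they had ≥10 input reads and ≥1 read per output.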

| Variant | polymerase ribozyme fitness (log ratio) |
| --- | --- |
| C14G C27G G58A G86U U127C | -4.16 |
| U13C G88A C99G | -4.01 |
| U13G C96G A120G | -1.51 |
| C14G G58A | -2.24 |
| A12U G84A | -1.05 |
| C14G A24G A41U G67A G152A | ≤ -4.2 |
| U13C A26U U56A G58C C63A G74U G88C A97U | ≤ -4.2 |
| C14G A40C G42C G48A G86U G92U C99A | ≤ -4.2 |
| C14G A39U C57G | -4.06 |
| A12U C14G | -2.05 |
| U13C A22G A49U G68C C79G | ≤ -4.2 |
| A12U G84C C93U G140A | ≤ -4.2 |
| A12U G48U U53A C54G G71A C75G G86A C95U A119C | ≤ -4.2 |
| U13A U15C A28G U33G C79A C118U U148G | ≤ -4.2 |
| C14G U15G A24G G58C C87G C108A C114U G136A | ≤ -4.2 |
| A12U C18G C63G G83U U111G | ≤ -4.2 |
| C14U A23U U56C C87U U90G | ≤ -4.2 |
| U13A A16G G86U | -2.89 |
| C14G A29U A30G C96U | ≤ -4.2 |
| C14A C27G | ≤ -4.2 |
| C14G U15A C54U C69A C99A U148A | ≤ -4.2 |

| Variant | polymerase ribozyme fitness (log ratio) |
| --- | --- |
| U13C G94C U104G | -2.15 |
| U13G A52C C85G G86U C129G | ≤ -4.2 |
| U13G U33G C54U | ≤ -4.2 |
| C14G G48C U146A | -4.06 |
| A12U C36U G84U | -4.11 |
| C14G A29G A60G G94C C99U C114U | ≤ -4.2 |
| U13A A24U C87A C123A | ≤ -4.2 |
| C14U A23U U31A A47C G92C C96G C131A | ≤ -4.2 |
| C14G A20C G92C C125G | -3.88 |
| U13C A39C C72A C76G C99G G140U A147C | ≤ -4.2 |
| U13G A39C G62A A107U U139A A142U | ≤ -4.2 |
| C14U A64G | -4.17 |
| U13A C54G G68A C75G C76G U90G C95G A119U | ≤ -4.2 |
| C14G A22C A73U | -3.92 |
| C14G U15G C54U G58U C87G C105U G143A | ≤ -4.2 |
| C14G C93U | -3.66 |
| U13G A91U | ≤ -4.2 |
| A12U A47G C118G | -1.11 |
| C14G A47C | -2.35 |
| C14G G50C C51U C79U C85A C125A | ≤ -4.2 |
| U13G A30C C85A | ≤ -4.2 |

| Variant | polymerase ribozyme fitness (log ratio) |
| --- | --- |
| A12U C54A | -1.78 |
| C14G G94A A106C G136A | -3.64 |
| C14A A20U C85A U109G | ≤ -4.2 |
| C14G G81A C87U A106C G140U | ≤ -4.2 |
| C14G C85G C103A | ≤ -4.2 |
| C14G A16U A39G G124A | ≤ -4.2 |
| C14A U15G A26U G86U G92U A107U U109A C116A | ≤ -4.2 |
| U13G C36A G83U C99A G140U | -4 |
| C14A G34U G74C G84U G143A | ≤ -4.2 |
| U13A C76U C105G C114U | ≤ -4.2 |
| C14A A40U C76U U78G G84A C103G G128A G141C | ≤ -4.2 |
| C14G A24C A26U C36A A73G A107U A119U U144A | ≤ -4.2 |
| A12U U109G | -2.25 |
| C14A A19U A21C A60G | -1.8 |
| U13C C76A U82G C85U C118G | -2.92 |
| A12U G42C C72G C76A A91U A120U U144C | ≤ -4.2 |
| U13A A39U U45A G59C C72U G94C U101A A142C | ≤ -4.2 |
| C14U A41C G50U A52C G84A U90G A91C C116U G140A | ≤ -4.2 |
| A12U U15G A39U G86U U102G C116U | ≤ -4.2 |
| C14G A20C C38U A147U | -2.09 |
| A12U C57G U78C C93U U127A | ≤ -4.2 |

| Variant | polymerase ribozyme fitness (log ratio) |
| --- | --- |
| C14G A26G U56G A73U G143A | ≤ -4.2 |
| U13G U33G U56A A60U G143U | ≤ -4.2 |
| U13G C75G | ≤ -4.2 |
| A12U G34C G62C A73U C96U A107G C116G A147G | ≤ -4.2 |
| C14A A16G U45A U55G U61A G65U G94C C96U U101G | ≤ -4.2 |
| C14G G83A | -2.42 |
| C14G A24C A49G G92C | ≤ -4.2 |
| U13C C36A C85G C99A A138C | ≤ -4.2 |
| U13A A23U G59A C87U | ≤ -4.2 |
| A12U C85U G136U | -3.16 |
| U13A A28U C43U G65A A106G | ≤ -4.2 |
| C14G U56A | -2.57 |
| A12U A147U | 0.945 |
| A12U C14U A121U C125U | -0.306 |
| U13C C18U | 0.127 |
| C14G A47C C54G U56A C93A C108U G124U G128A | ≤ -4.2 |
| U13G C27A C36U A40C A60G A138G | ≤ -4.2 |
| U13A G74C C93U G124A | ≤ -4.2 |
| C14A U53A G94C | -3.67 |
| A12U A49U C54G C93G | ≤ -4.2 |
| U13G C57U C96G | -1.66 |
